One molecule from PMC9360328, “Tenuous Transcriptional Threshold of Human Sex Determination. I. SRY and Swyer Syndrome at the Edge of Ambiguity” can be followed below.

The target in this series is SRY HMG box WT (Homo sapiens, UniProt Q05066 56-141). Nature of the series: FRET titration; 15 C, 25 nM DNA; FRET titration: 10 mM potassium phosphate, 10 mM Tris-HCl, 140 mM KCl, 1 mM EDTA, 1 mM DTT, pH 8.4, 15 C, 25 nM DNA; PGE: 10 nM DNA, 20 nM protein, 0.5x TBE, 4. The settings on record: protein: recombinant; label: 5'-6-FAM (hexanyl linker) on upper strand; 5'-TAMRA (hexanyl linker) on lower strand; blunt.
SRY HMG box WT, sequence (Q05066 56-141): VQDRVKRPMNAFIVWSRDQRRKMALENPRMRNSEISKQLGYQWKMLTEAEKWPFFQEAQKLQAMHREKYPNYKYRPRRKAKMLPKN

B1: 15-bp consensus SRY site, FRET-labeled (dsDNA)
DNA 1: TCGGTGATTGTTCAG
DNA 2: CTGAACAATCACCGA
On to B1, for which the Kd (usually the equilibrium constant for the complex coming apart) came out at 10 ± 3 nM.
